Measurements reported in publication PMC5531588, “Staphylococcus aureus single-stranded DNA-binding protein SsbA can bind but cannot stimulate PriA helicase”.

Tests used:
[1] = target: Staphylococcus aureus single-stranded DNA-binding protein SsbA (S. aureus subsp. aureus ED98); test: SEC; purified SaSsbA (2 mg/mL) on Superdex 200 prep grade in Buffer B (20 mM HEPES, 100 mM NaCl, pH 7.0), calibrated with proteins of known molecular weight
[2] = target: Staphylococcus aureus PriA helicase (S. aureus); test: SPR; SaPriA immobilised on CM5 chip, Biacore T200, 293 K, 40 mM Tris, 200 mM NaCl, 0.05% Tween-20, pH 8.0; analyte injected 120 s at 30 uL/min; 1:1 (Langmuir) model
SaSsbA = SaSsbA (Staphylococcus aureus subsp. aureus ED98, UniProt A0A0D1JHQ1 1-167); test: EMSA; 100 mM NaCl; EMSA: 20 mM Tris-HCl pH 8.0, 100 mM NaCl (or 0.4 M NaCl), 1.7 nM DNA, 25 C, 30 min; native 8% PAGE in TBE at 4 C; conditions: protein: recombinant; chain copies: 4; label: 32P (5' end, T4 PNK); single strand

Staphylococcus aureus single-stranded DNA-binding protein SsbA (natural protein)
stoichiometry N [1]: 4 | Kd [2]: 46 nM

TTTTTTTTTTTTTTTTTTTTTTTTTTTTTT (ssDNA) [dT30]
apparent K (half saturation) (SaSsbA): 186 ± 20 nM

TTTTTTTTTTTTTTTTTTTTTTTTTTTTTTTTTTTTTTTT (ssDNA) [dT40]
apparent K (half saturation) (SaSsbA): 90 ± 5 nM

TTTTTTTTTTTTTTTTTTTT (ssDNA) [dT20]
apparent K (half saturation) (SaSsbA): 292 ± 28 nM
